How the values were obtained:
Test in all cases: ITC
Conditions in all cases: ITC: 10 mM HEPES, 150 mM NaCl, pH 7.5, 25 C, 100 uM DNA into 10 uM CsoR tetramer; EMSA: same buffer, room temperature, 30 min, 6% PAGE in TBE; SEC: same buffer
[1] = molecular target: CsoRSl R129A (Streptomyces lividans 1326) (UniProt D6EK73)
[2] = molecular target: CsoRSl R54A (Streptomyces lividans 1326) (UniProt D6EK73)
[3] = molecular target: CsoRSl R132A (Streptomyces lividans 1326) (UniProt D6EK73)

With “CGGACAAATACCCCTGGTGGGTATATATGG (double strand) [csoR-EXT]” the Kd [1] was 134 nM, the Kd [2] was 2060 nM and the Kd [3] was 309 nM.

Reference: paper PMC3902906
